Measured values taken from the supplement of paper PMC12042874.
± gives the uncertainty stated by the source.

Test: amyloid nucleation score (Sup35N fusion, yeast selection) (log enrichment); library NNK1; higher = more nucleation; inactive = no reads after selection
How it was run: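 Sup35N fusions to peptides of 20 random codons were expressed in psi-negative yeast, induced 24 hours with 100 μM copper sulfate, and grown 7 days at 30°C on medium lacking adenine and uracil. Input and output plasmid inserts were sequenced by Illumina. The nucleation score is the DiMSum log enrichment of output over input reads, centred on the mode score of non-aggregating sequences. Sequences with under 100 input reads were excluded.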

Substance | amyloid nucleation score
VSWWNCLL | -1.28 ± 2.4
VSYQGTSAFDGSRKVVGPTL | 0.353 ± 0.54
VTHGHVGTVGSWVVRTTAFM | -0.937 ± 2.1
VTLPSAMQGSHFTWGPNVAF | -0.422 ± 1.2
VTLQQRLCSFYMLIVEFASS | 0.045 ± 0.43
VTMNRIV | 0.501 ± 0.21
VTRTYLNRMRSMLSGSMFFM | 0.423 ± 0.35
VVATKLSV | -0.95 ± 1.4
VVCARVLRWEVGYVFGKIER | inactive
VVCVLRVVDVMFASRS | 0.694 ± 1.2
VVFRGAVREVQGSWESCILA | 0.676 ± 0.52
VVHRALLYGNGIVN | 1.4 ± 0.7
VVIGILSEYATKTNWFCSIY | 1.08 ± 0.2
VVLDAFIPWYSLLATSSVGA | -0.777 ± 2.4
VVLGLWV | inactive
VVLKNHRHSVLSWWLTS | -0.622 ± 0.56
VVLLQLQCHEPFYSPKPQQA | -0.048 ± 0.51
VVLPGYMLNGFPNESNLIWP | -1.22 ± 0.49
VVLPRLRGNLVCDEIES | 2.07 ± 0.53
VVMNLLVLIGYLSSLYFLQA | -1.04 ± 1.9
VVMQACNLNMCFMNGCRRGC | 7.304 ± 0.045
VVMVLSKGPDIRSNMRCSSV | -1.9 ± 1.4
VVNWIASMGCIFYRVPNVSG | 4.66 ± 0.13
VVQAVIR | -1.01 ± 1.7
VVSDRRFYLLKFKSGVLSLV | -0.043 ± 0.31
VVTRDQLYQ | -0.817 ± 1.7

Substance | amyloid nucleation score
VVVEKLAQLNHVKAEPMVSG | 0.335 ± 0.57
VVYIHFAII | 0.439 ± 0.69
VWFVVGGGE | 1.7 ± 0.42
VWIALFDVTDDMSARTDIWS | -0.876 ± 0.74
VWISWMSRISITRLCVWGSV | 0.379 ± 0.41
VWSGEE | -0.344 ± 0.38
VWTMIYSTCGSDFYFCSVEL | 0.715 ± 0.47
VWTYNLI | inactive
VWVHD | 0.257 ± 0.26
VWWHYLSLYAIWYSYVRLYV | -0.097 ± 0.52
VWYWLSNNLDVW | 0.809 ± 0.98
VYAYTRY | 0.194 ± 0.68
VYCFCQNRSSFYGKMHLGMH | 1.25 ± 0.62
VYKCSQVDRVCKMAWVGLKS | 0.205 ± 0.34
VYLNFTISKVEVVTFFFIMG | 0.165 ± 0.34
VYLVMSVCGTRNGYKHSSQL | 0.265 ± 0.25
VYNLFVEVVPILKNRLWFNY | 4.44 ± 0.094
VYNWRLMEYHRGWDHFCYLS | -0.559 ± 0.33
VYRDLVDAYVTDYMCWGAPG | inactive
VYRSHLRTNFSTFTSMSSVL | -0.626 ± 1.4
VYYLIVHLHSGMLHQIVELS | 0.707 ± 0.51
WAAFLVMDGWICDQAYMTMR | inactive
WADTPRQLGCSSSSTISCSL | -0.216 ± 0.4
WAYYCYP | -2.01 ± 2.4
WCHGHYHSSNEMSTI | 1.37 ± 0.69
WCNRHHDWVVLLAIVAGGEV | 0.873 ± 0.64

Substance | amyloid nucleation score
WCRRWFLLYWVCAETKFGSG | -0.367 ± 0.52
WCYFVRDGVGVGEVTCPRQR | 0.273 ± 0.54
WDAGVFWKMYLSTCRTSI | 0.949 ± 0.54
WDLLLWSVNRDRRV | 1.47 ± 0.55
WDMAFSVALGLRYMRCGLKL | -0.286 ± 0.35
WDWHIGRKWV | -0.629 ± 0.62
WEDSGVIFLMVCCSVYLGNL | 2.66 ± 0.12
WEGLQLLGS | -0.138 ± 0.91
WELMLTTH | 0.453 ± 0.33
WESEFYLGLELERVAGGSGG | -1.03 ± 2.7
WETGIRMFVKCRR | 0.906 ± 0.33
WETVQLTGRVLFWAISYCKI | -0.178 ± 0.52
WFAAHPYFNWDGGIRY | -1.41 ± 2.7
WFGLQYMSWVSIESYGQAAW | 0.875 ± 0.97
WFHSQVTQNYSVWLLSTNYS | -0.091 ± 0.56
WFIPNKGTYREAYFLSCLGS | -0.954 ± 1.3
WFMVVSRNMFCV | 0.456 ± 1.1
WFNWVCCNGNAWIKDRF | 7.66 ± 0.054
WFSWLVGEILCWCGGWVRSK | 0.404 ± 0.51
WFWYIYM | 1.54 ± 0.19
WGCRV | -0.451 ± 0.58
WGKYSD | 0.343 ± 0.7
WGLLLE | 4.13 ± 0.094
WGNTRYGTAASVCVTEVKGS | 0.048 ± 0.4
WHAHFEFNMLGILCRHFCSL | 3.19 ± 0.16
WHTCYHSWSASIVLAPVSTT | -0.009 ± 0.39

Substance | amyloid nucleation score
WIHIVYGFWSWVWGI | -0.327 ± 0.47
WIILFWHYFSKYFQPLIGRS | inactive
WINFMSQWDPLGRQYVWHIQ | 1.81 ± 0.36
WIPSFIQMDTVVRDTVNKEF | 1.09 ± 0.74
WIRDDVVMGGAECCLVLNQ | 1.24 ± 0.58
WISKWHYGAQSSARSKYARI | 0.864 ± 0.47
WKKGRMMIKSQSGGLSQVWG | 1.05 ± 0.59
WLESLARDSCSRFIDLHEWG | -0.615 ± 1.5
WLEYYYCMLHDELIS | 0.109 ± 0.29
WLLLNDSFSTRHLFMPRSKW | -0.381 ± 0.75
WLRRCEGGKMSYSSLSTVES | -0.563 ± 0.45
WLSETAAWENTYRCLRILHG | -0.446 ± 0.4
WMLHMASGGTLCEEASVLVV | -0.148 ± 0.55
WMNFWHLFSVFLLFSAICWF | -0.006 ± 0.61
WNCKLTMADGGSAKVAPLSS | 0.38 ± 0.32
WNRVWIMYGT | 1.57 ± 0.22
WNYIEGASFSRMGEASNAPG | -0.944 ± 1.2
WPCKAFFSSAGLRYGVNLA | -0.833 ± 0.9
WPSKAQAVFTNTSTLNVSRF | inactive
WQTSSNGLSLKATCLTYKSF | 0.016 ± 1.7
WRAMAFVYLVASWSVGIRGR | 0.07 ± 1
WRFEYWFRGIHYCIYNYFC | -0.011 ± 0.89
WRIMNHNVLLMLVRLGSILL | 1.18 ± 0.28
WRMVAIWKNLD | -0.013 ± 0.56
WRMYMYVNNPSNKHWVRRAS | -0.488 ± 0.51
WSCTSCFNYGLF | 7.178 ± 0.052

Substance | amyloid nucleation score
WSGFFFAGLWVVLCVEGGAC | 0.192 ± 0.88
WSGTDRMCSVMTYS | -0.841 ± 0.51
WSHADILV | inactive
WSKLYIAK | -0.69 ± 0.41
WSLWLRRDFSR | 0.76 ± 0.61
WSPNNTISNGMTKVWASGRL | 0.78 ± 0.56
WSRSLVLGPLEMAHTKAVQN | -0.658 ± 1.4
WSSPQEQT | -1.59 ± 1.5
WSSTTNWMLRPFKCANRLGW | -0.529 ± 1.3
WSSWGGSTGVVRKREELCGR | -0.44 ± 0.5
WSVSASQFRSVPRSPFALSQ | -0.303 ± 0.26
WSWRLPGPCLFFCAEEQLTK | 1.32 ± 0.84
WTTMFAFAF | 1.42 ± 0.44
WTYRQLKSAGKEHVYFLKVR | -0.031 ± 1.2
WVNCLFIYWFCFDALPIIVE | -0.616 ± 0.4
WVPMDVF | 1.61 ± 0.35
WVQFLDMGAVMKIWLVKCFP | -0.485 ± 1.1
WVSMKVVGVKHSGLDWRIL | 0.012 ± 0.52
WVVVDTLVRTGGCCWGYWKT | 1.91 ± 0.27
WVWDCFHDCVPYMGRTGLVA | -0.56 ± 0.93
WVWDGDIGGWNVKPFHRVRG | 0.121 ± 0.58
WWDHVWGVR | 0.31 ± 0.75
WWFRK | 0.654 ± 1.1
